Test results taken from patent publication US20040002450A1, “Y17 - isolated molecules comprising epitopes containing sulfated moieties, antibodies to such epitopes, and uses thereof” (priority 2000, published 2004).

Columns and labels:
[1] = test system: KG-1 cells; assay: Radioreceptor binding assay with KG-1 cells; parameters: species or system human; settings: 2 ng/tube 125I-Y1-IgG tracer
Method: The assay system involved the use of radioactive ligands that were prepared by iodination with ^125I using chloramine T on the Y1-IgG construct or the Bolton-Hunter (CONY1) reagent. The assay tubes contained 5×10^6 KG-1 cells per 0.2 ml and a labeled tracer with varying amounts of unlabeled competitor, in PBS+0.1% BSA, pH 7.4. After one hour incubation with agitation at 4° C., the cells were thoroughly washed with cold buffer and taken for radioactivity counting.
For the radio receptor binding assay (RRA), 2 ng/tube of ^125I-Y1-IgG was used, and competition was performed with each of the three molecules. […] A rough estimate of the affinity of the Y1-IgG in this experiment is 2×10^−8 M. The corresponding affinity of the dimer is, therefore, 4×10^−8 M.
In a second RRA using labeled CONYL, a 100 ng/tube of ^125I-Y1-IgG was used, and competition was performed with each of the three molecules. […] A rough estimate of the affinity of CONY 1 in this experiment is 10^−6M. The corresponding affinity of the dimer is, therefore, 5×10^−8 M.

[2] = test system: KG-1 cells; assay: AML KG-1 model in SCID/NOD mice; assay type: in vivo
Method: The in vivo mouse model for human AML uses SCID/NOD mice (Jackson Laboratories) inoculated with KG-1 cells derived from a human AML cell line.
In a first experiment, NOD/SCID mice were pretreated with 100 mg/kg CYTOXAN®. Four days post CYTOXANT injection, KG-1 cells were injected intravenously into the tail vein of six groups of mice. (Table N, Groups 2 and 5-9). One group of mice (Table N, Group 1) was injected with PBS alone (control).
Beginning 19 days post KG-1 injection mice were treated with: CONY1, Doxorubicin, CONY1-Doxorubicin conjugate, or Mylotarg®. (Mylotarg® is a monoclonal antibody (anti CD33) conjugated chemically to calcheamicin recently approved by the FDA for treatment of AML patients age 60 and over in a first relapse.) Mice were treated once or three times per week for three weeks. […]
Mice were sacrificed from 60 to 65 days post cell injection. Bone marrow and blood samples were analyzed by flow cytometry using mouse anti human CD34-FITC (IQP 144F) (or anti CD44-FITC (MCA89F, Serotec)) and Y1-Biotin/SAV-PE. […]
An additional experiment was performed in which SCID-NOD mice were i.v. injected with 3×10^4 MOLT-4 cells/mouse 5 days post treatment with cyclophosphamide. […] Bone marrow was extracted and analyzed by FACS analysis using a commercially available antiCD44 antibody for the detection of MOLT-4 cells in the mice bone marrow cell population.

[3] = biological target: T1, GPIb (glycocalicin) derived from platelets (Homo sapiens, UniProt P07359); assay: ELISA to GC (glycocalicin), monomer versus dimer; assay type: binding
T1 construct: glycocalicin (soluble, extracellular fragment of GPIbα); from tissue; host or cells: human platelets
Method: An ELISA assay was performed to ascertain the differences in binding between the monomer (the Y1 scFv-also known as Y1-kak) and the dimer Y1-cys-kak (the cysteine dimer) for antigen GPIb (glycocalicin) derived from platelets. A polyclonal anti single chain antibody and/or a novel polyclonal anti-VL (derived from rabbits) and anti-rabbit HRP, were used to detect the binding to GPIb. […] For instance, to reach 0.8 OD units 12.8 μg/ml of monomer was used compared to only 0.1 μg/ml of dimer.
100 ml of purified glycocalicin was incubated in a 96 flat well maxisorp plates, overnight at 4 degrees celsius. The plate was washed with PBST (PBS+0.05% tween) 3 times, then […] of PBST-milk (PBST+2% Non fat milk), for 1 hr at room temperature. The plate was washed with PBST, and the monomer or dimer (100 ml) was added in PBST-milk at different concentrations for 1 hr at room temp. Then the plate was washed and anti-VL polyclonal (derived from immunized rabbits with VL derived from Y1) (1:100 diluted in PBST-milk) was added for an hour. The plate was washed and anti-rabbit HRP was added for an additional hour. The plate was washed 5 times and 100 μl TMB substrate was added for approximately 15 minutes then 100 μl of 0.5H2SO4 was added to stop the reaction. The optical density of the plate was measured at 450 nm in an ELISA reader.

[4] = mouse, in vivo
Method: The radioactive protein was then admixed with unlabeled CONY-1 to yield a solution of 75 μg/ml CONY-1 containing 2.5×10^6 CPM/ml in saline.
Male Balb-C mice were pretreated by intraperitoneal injection of 0.5 ml/mouse of 0.9% NaI. After 2 hours, the mice were injected intravenously with 0.2 ml of the labeled CONY-1 solution, resulting in a ^125I-CONY-1 dose of 15 μg (5×10^5 CPM) per mouse.
At various times after injection, blood was collected over EDTA, mice were sacrificed, and tissues were excised. Samples and organs were taken at 5, 15, and 30 minutes and at 1, 2, 4, 8, and 24 hours after injection. Two to four mice were used per time point. Plasma was separated and either counted for gamma radioactivity or subjected to precipitation with trichloroacetic acid (TCA). After centrifugation, TCA precipitates were subjected to gamma radioactivity counting. Liver, lung, kidney, spleen, and bone marrow samples were weighed and counted for gamma radioactivity. Plasma TCA precipitated radioactivity was plotted against time, and a two-compartment kinetics model was fitted. Organ/tissue total and specific radioactivity values were calculated.

[5] = test system: MOLT-4 cells; assay: T-ALL (MOLT4) model in SCID mice; assay type: in vivo
Method: The in vivo mouse model for T-ALL uses SCID mice (Jackson Laboratories) injected with MOLT4 cells derived from a T cell leukemia patient.
In one experiment, SCID mice were pretreated with 100 mg/kg Cytoxan (CTX, Cyclophosphamid for injection, Mead Johnson). Eleven days after CTX injection, MOLT-4 cells were injected intravenously into the tail vein. Control mice were injected with PBS alone. One week post-MOLT-4 injection mice were injected with CONY1-Doxorubicin, which is a conjugate between scFv CON Y1 polypeptide, having KAK amino acid residues at its carboxy end and doxorubicin via a short organic linker; CONY1, which is a scFv antibody fragment derived from Y1 scFv in which the DNA sequences encoding the myc tag of Y1 were deleted and replaced with a DNA sequence encoding the amino acids lysine, alanine, lysine (KAK); or free Doxorubicin. The mice were injected three times per week for three weeks. […] (Table M).
Mice started to die 32 days post cell inoculation, and the surviving mice were sacrificed at this time. Bone marrow cells were analyzed by flow cytometry using anti-human CD44-FITC and Y1-Biotin/SAV-PE. Blood samples from several animals were monitored for platelet and white blood cell count. Livers were weighted and examined for appearance. Other organs were also examined for tumor appearance.
In a second experiment, SCID mice were i.v. injected with 2×10^7 MOLT-4 cells/mouse, 5 days post treatment with cyclophosphamide. Anti-cancer agents or PBS (negative control animals) were injected i.v. three times/week from day 5 post MOLT-4 cells injection and onward. On day 35, blood was drawn from the animals, the animals were sacrificed, and their livers were excised and weighed. In the untreated, PBS-treated MOLT-4 cell-bearing animals, the liver presented with a very massive tumor growth, and its size was increased 2-3-fold relative to PBS control uninfected animals. In this experiment, there were five treatment groups:
In parallel, portions of liver tissue were taken for histology and cell harvesting for FACS analysis. The survival rate of another group of treated animals was recorded relative to that of control untreated mice.
In a third experiment, using the identical SCID/MOLT-4 protocol, there were 6 groups: […]

Molecule | affinity relative to the full Y1 antibody [1] | percentage of KG-1 cells in bone marrow (in words) ([2]; KG-1 cells incubated in vitro with scFv before injection (groups 3 and 4)) | development of the malignancy / prevalence of bone marrow cancer (in words) ([2]; additional experiment, day 60, CONY1 scFv 75 μg/mouse three times/week, Mylotarg 7 μg/mouse once a week) | concentration used to reach 0.8 OD units [3] [µg/mL] | distribution between plasma and erythrocytes (in words) [4] | half-life of blood clearance, first compartment ([4]; iv) [h] | half-life of blood clearance, second compartment ([4]; iv) [h] | liver weight versus free Doxorubicin-treated or untreated MOLT-4 mice ([5]; first experiment, three times per week for three weeks, sacrifice 32 days post inoculation) | survival ([5]; mice from three groups with continued treatment) | liver weights / tumor growth in the liver ([5]; second experiment, day 35, i.v. three times/week, scFv or conjugate 75 μg/mouse, Doxorubicin 0.1 mg/kg) | tumor growth (based on liver weights) ([5]; third experiment, scFv 75 μg/mouse, IgG 5 μg/mouse)
S-S Y1 dimer: Y1 sulfide bridge dimer compared with CONY1 and Y1-IgG in the radioreceptor assay (protein) scFv: MEVQLVESGGGVVRPGGSLRLSCAASGFTFDDYGMSWVRQAPGKGLEWVSGINWNGGSTGYADSVKGRFTISRDNAKNSLYLQMNSLRAEDTAVYYCARMRAPVIWGQGTLVTVSRGGGGSGGGGSGGGGSSELTQDPAVSVALGQTVRITCQGDSLRSYYASWYQQKPGQAPVLVIYGKNNRPSGIPDRFSGSSSGNTASLTITGAQAEDEADYYCNSRDSSGNHVVFGGGTKLTVLGGGGCKAK | twofold lower | – | – | – | – | – | – | – | – | – | –
CONY1: scFv derived from Y1 scFv in which the myc tag is replaced by lysine, alanine, lysine (KAK); SEQ ID NO: 204 (protein, listed as Homo sapiens) scFv: MKYLLPTAAAGLLLLAAQPAMAEVQLVESGGGVVRPGGSLRLSCAASGFTFDDYGMSWVRQAPGKGLEWVSGINWNGGSTGYADSVKGRFTISRDNAKNSLYLQMNSLRAEDTAVYYCARMRAPVIWGQGTLVTVSRGGGGSGGGGSGGGGSSELTQDPAVSVALGQTVRITCQGDSLRSYYASWYQQKPGQAPVLVIYGKNNRPSGIPDRFSGSSSGNTASLTITGAQAEDEADYYCNSRDSSGNHVVFGGGTKLTVLGAAAKAK | – | significantly lower percentage | no effect | 12.8 | did not adhere to erythrocytes | 0.583 | 3.17 | weighted significantly less | prolonged | markedly inhibited tumor growth in the liver | inhibited tumor growth
